In one data set the target is NovoTim1.0. In kind it is biochemical.
In the next data set the target is wild-type TIM (Homo sapiens, UniProt P60174). Conditions: cited from earlier work.
For data set [1] the following is noted: read-out: DHAP → GAP KM; cited from earlier work.
For data set [2] the following is noted: read-out: KM (μM), second group; cited from earlier work.
Data set [3] is classed as physicochemical. To be noted: pH 7.
For data set [4] the following is noted: read-out: affinities of wild-type receptors for cognate ligands; cited from earlier work.
Data set [5] is classed as binding. To be noted: read-out: K1 (μM) L-lac.
The format of data set [6] is binding. Conditions: read-out: K1 (μM) D-lac.
The format of data set [7] is binding. To be noted: read-out: K1 (μM) Pyr.

Like-named read-outs stand apart in the source and are kept apart here.

We go through nine molecules from US20040229290A1 (priority 2003, published 2004).

wild-type TIM, sequence (P60174 whole entry): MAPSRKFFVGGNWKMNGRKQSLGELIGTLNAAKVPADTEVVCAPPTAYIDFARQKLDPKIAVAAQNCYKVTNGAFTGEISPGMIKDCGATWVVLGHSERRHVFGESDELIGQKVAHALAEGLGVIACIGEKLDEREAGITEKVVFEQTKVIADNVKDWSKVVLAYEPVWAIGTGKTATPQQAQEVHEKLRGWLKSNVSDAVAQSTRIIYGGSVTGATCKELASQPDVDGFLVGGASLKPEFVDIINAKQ

As usually defined, the Ki is a measure of affinity in units of concentration, obtained from inhibition or displacement. Regarding `O=C(O)COP(=O)(O)O` [phosphoglycolate], the inhibition constant Ki on NovoTim1.0 was 130 µM; at wild-type TIM it was 4 µM.
In general, Km refers to the substrate concentration at which the rate is half of its maximum. As for triose phosphate isomerase [wtTIM], the Michaelis-Menten constant (Km) was 1600 µM in data set [1] and 390 µM in [2].

B1: histidine-binding protein (protein, UniProt P0AEU0 23-260, looked up)
Histidine-binding periplasmic …: AIPQNIRIGTDPTYAPFESKNSQGELVGFDIDLAKELCKRINTQCTFVENPLDALIPSLKAKKIDAIMSSLSITEKRQQEIAFTDKLYAADSRLVVAKNSDIQPTVESLKGKRVGVLQGTTQETFGNEHWAPKGIEIVSYQGQDNIYSDLTAGRIDAAFQDEVAASEGFLKQPVGKDYKFGGPSVKDEKLFGVGTGMGLRKEDNELREALNKAFAEMRADGTYEKLAKKYFDFDVYGG
Take B1: in data set [3], the Tm turned out to be 58 °C.

B2: glutamine-binding protein (protein, UniProt P0AEQ3 23-248, looked up)
Glutamine-binding periplasmic …: ADKKLVVATDTAFVPFEFKQGDKYVGFDVDLWAAIAKELKLDYELKPMDFSGIIPALQTKNVDLALAGITITDERKKAIDFSDGYYKSGLLVMVKANNNDVKSVKDLDGKVVAVKSGTGSVDYAKANIKTKDLRQFPNIDNAYMELGTNRADAVLHDTPNILYFIKTAGNGQFKAVGDSLEAQQYGIAFPKGSDELRDKVNGALKTLRENGTYNEIYKKWFGTEPK
Take B2: in data set [3], the Tm is 62 °C.

B3: arabinose-binding protein (protein, UniProt P02924 24-329, looked up)
L-arabinose-binding …: ENLKLGFLVKQPEEPWFQTEWKFADKAGKDLGFEVIKIAVPDGEKTLNAIDSLAASGAKGFVICTPDPKLGSAIVAKARGYDMKVIAVDDQFVNAKGKPMDTVPLVMMAATKIGERQGQELYKEMQKRGWDVKESAVMAITANELDTARRRTTGSMDALKAAGFPEKQIYQVPTKSNDIPGAFDAANSMLVQHPEVKHWLIVGMNDSTVLGGVRATEGQGFKAADIIGIGINGVDAVSELSKAQATGFYGSLLPSPDVHGYKSSEMLYNWVAKDVEPPKFTEVTDVVLITRDNFKEELEKKGLGGK
For the molecule B3, the Tm in data set [3] came to 54 °C.

B4: ribose-binding protein (protein)
chain: KDTIALVVSTLNNPFFVSLKDGAQKEADKLGYNLVVLDSQNNPAKELANVQDLTVRGTKILLINPTDSDAVGNAVKMANQANIPVITLDRQATKGEVVSHIASDNVLGGKIAGDYIAKKAGEGAKVIELQGIAGTSAARERGEGFQQAVAAHKFNVLASQPADFDRIKGLNVMQNLLTAHPDVQAVFAQNDEMALGALRALQTAGKSDVMVVGFDGTPDGEKAVNDGKLAATIAQLPDQIGAKGVETADKVLKGEKVQAKYPVDLKLVVKQ
As to B4, the Tm in data set [3] turned out to be 58 °C. Also, the Kd in data set [4] is 0.2 µM.

B5: Lac.G2: GBP variant designed to bind L-lactate (protein)
chain: ADTRIGVTIKKYDMNKMSVVRKAIEQDAKAAPDVQLLMNDSQNDQSKQNDQIDVLLAKGVKALAINLVDPAAAGTVIEKARGQNVPVVFFKLEPSRKALDSYDKAYYVGTDSKESGIIQGDLIAKHWAANQGWDLNKDGQIQFVLLKGEPGKPKAEAMTTYVIKELNDKGIKTEQLQLDTAMKDTAQAKDKMDAWLSGPNANKIEVVIANNDAMAMGAVEALKAHNKSSIPVFGVAALPEALALVKSGALAGTVLSDANNQAKATFDLAKNLADGKGAADGTNWKIDNKVVRVPYVGVDKDNLAEFSKK
Regarding B5, the values for the Kd in [5], in [6] and in data set [7] were 2.1 µM, 55 µM and 115 µM, respectively. For the same molecule, the Tm in data set [3] was 50 °C.

B6: Lac.G1 (protein)
chain: ADTRIGVTIKKYDKNFMSVVRKAIEQDAKAAPDVQLLMNDSQNDQSKQNDQIDVLLAKGVKALAINLVDPAAAGTVIEKARGQNVPVVFFKLEPSRKALDSYDKAYYVGTDSKESGIIQGDLIAKHWAANQGWDLNKDGQIQFVLLKGEPGMPHAEAKTTYVIKELNDKGIKTEQLQLDTAMKDTAQAKDKMDAWLSGPNANKIEVVIANNDAMAMGAVEALKAHNKSSIPVFGVAALPEALALVKSGALAGTVLDDANNQAKATFDLAKNLADGKGAADGTNWKIDNKVVRVPYVGVDKDNLAEFSKK
Regarding B6, the figures for the Kd in data set [5], in [6] and in data set [7] were 2.8 µM, 205 µM and 255 µM, respectively.

B7: Lac.R1: RBP variant designed to bind L-lactate (protein)
chain: KDTIALVVSTLNVPARVSLKDGAQKEADKLGYNLVVLDSQNNPAKELANVQDLTVRGTKILLINPTDSDAVGNAVKMANQANIPVITLSSQATKGEVVSHIASDNVLGGKIAGDYIAKKAGEGAKVIELQGIAGTSKAREMGEGFQQAVAAHKFNVLASQPADKDRIKGLNVMQNLLTAHPDVQAVFAQIDEMALGALRALQTAGKSDVMVVGFSGTPDGEKAVNDGKLAATIATLPDQIGAKGVETADKVLKGEKVQAKYPVDLKLVVKQ
For the molecule B7, the Kd stood at 7.4 µM in data set [5], 40 µM in data set [6] and 40 µM in data set [7].
